We go through 2 molecules from article PMC7488863, “Overexpression of transcription factor SlWRKY28 improved the tolerance of Populus davidiana × P. bolleana to alkaline salt stress”.

For data set [1], the target named is T1, GST-SlWRKY28 (Salix linearistipularis, UniProt A0A4D6JIT6 1-474). The data set can be described thus: EMSA; EMSA/gel-shift binding buffer (Beyotime kit, 5x stock, 2 uL per 10 uL reaction), 25 C, 20 min; salt and pH not stated. The note with it: protein: recombinant; tags: N-terminal GST (pGEX-6p-3); label: biotin (both probe strands); blunt.
The target of data set [2] is T1, GST-SlWRKY28. The data set can be described thus: competition; 10x and 50x unlabeled probe against Biotin-Pr; complex signal weak with cold probe; EMSA/gel-shift binding buffer (Beyotime kit, 5x stock, 2 uL per 10 uL reaction), 25 C, 20 min; salt and pH not stated. The note with it: protein: recombinant; tags: N-terminal GST (pGEX-6p-3); blunt. On the technique in general: A gel shift assay detects complexes by their altered migration in electrophoresis.

T1 sequence (A0A4D6JIT6 entry or part of it): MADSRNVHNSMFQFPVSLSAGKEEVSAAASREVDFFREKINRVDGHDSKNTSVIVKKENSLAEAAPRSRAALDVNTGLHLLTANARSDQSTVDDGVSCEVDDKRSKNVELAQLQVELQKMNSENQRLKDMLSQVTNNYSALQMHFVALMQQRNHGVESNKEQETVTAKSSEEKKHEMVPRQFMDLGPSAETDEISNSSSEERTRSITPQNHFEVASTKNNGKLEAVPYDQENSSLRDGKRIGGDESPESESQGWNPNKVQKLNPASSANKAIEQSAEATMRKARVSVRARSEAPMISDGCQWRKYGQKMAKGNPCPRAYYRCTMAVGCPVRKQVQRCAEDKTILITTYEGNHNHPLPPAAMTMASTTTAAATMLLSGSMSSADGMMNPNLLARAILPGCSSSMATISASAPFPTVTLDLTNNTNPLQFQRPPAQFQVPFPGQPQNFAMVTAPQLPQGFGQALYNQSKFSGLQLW

B1: W-box probe (Biotin-Pr) (dsDNA)
DNA 1: GGAACTTGACCTTGACCTTAGGGCTGCAGGAATTCG
DNA 2: CGAATTCCTGCAGCCCTAAGGTCAAGGTCAAGTTCC
Take B1: in the data set with GST-SlWRKY28 [1], the binding result is given as “binds”.

B2: W-box cold probe (Cold-Pr) (dsDNA)
DNA 1: B1 DNA 1
DNA 2: B1 DNA 2
Regarding B2, in the data set with GST-SlWRKY28 [2], the binding result is listed as “binds”.
